In publication PMC6627055, “Enantioselective Hydrolysis of Styrene Oxide and Benzyl Glycidyl Ether by a Variant of Epoxide Hydrolase from Agromyces mediolanus” (Marine Drugs, 2019):

What was measured:
Assay in all cases: initial rate of epoxide hydrolysis, chiral HPLC
Type in all cases: biochemical, Agromyces mediolanus
Conditions in all cases: phosphate buffer 0.2 M, pH 8.0, 30 °C (general activity assay), enantiopure substrate
c1ccc(COC[C@@H]2CO2)cc1 = tested on: T1, c1ccc(COC[C@@H]2CO2)cc1
T1 construct: synthetic gene, triple variant, C-terminal His6 (3' end of gene) in pET28a NcoI/XhoI, E. coli BL21(DE3), Ni-NTA purified, about 43 kDa
From the text: (§1) initial rate of epoxide hydrolysis, chiral HPLC on vEH-Am

c1ccc(COC[C@H]2CO2)cc1 = tested on: T2, c1ccc(COC[C@H]2CO2)cc1
T2 construct: synthetic gene, triple variant, C-terminal His6 (3' end of gene) in pET28a NcoI/XhoI, E. coli BL21(DE3), Ni-NTA purified, about 43 kDa
From the text: as §1

c1ccc([C@@H]2CO2)cc1 = tested on: T3, c1ccc([C@@H]2CO2)cc1
T3 construct: synthetic gene, triple variant, C-terminal His6 (3' end of gene) in pET28a NcoI/XhoI, E. coli BL21(DE3), Ni-NTA purified, about 43 kDa
From the text: as §1

c1ccc([C@H]2CO2)cc1 = tested on: T4, c1ccc([C@H]2CO2)cc1
T4 construct: synthetic gene, triple variant, C-terminal His6 (3' end of gene) in pET28a NcoI/XhoI, E. coli BL21(DE3), Ni-NTA purified, about 43 kDa
From the text: as §1

vEH-Am (Agromyces mediolanus; N240D/S207V/W182F)
Km (c1ccc(COC[C@@H]2CO2)cc1): 36.5 mM | Km (c1ccc(COC[C@H]2CO2)cc1): 9.3 mM | Km (c1ccc([C@@H]2CO2)cc1): 5.2 mM | Km (c1ccc([C@H]2CO2)cc1): 0.9 mM
